This note sets out measurements from patent US20160289290A1, “N-GLYCOSYLATED INSULIN ANALOGUES” (Merck Sharp & Dohme Corp., priority 2011, published 2016).

Data set [1] is described as follows: Glucose levels during mouse ITT. The format is in vivo.
Data set [2] in a line: Glucose responsiveness in C57BL/6 mice with or without α-methylmannose. The format is in vivo. On the procedure: FIG. 40A, FIG. 40B, FIG. 40C, and FIG. 40D show in vivo activity of insulin B:P28N des(B30) analogues with an N-glycan attached to position B28. C57BL/6 mice at 12 weeks of age were fasted two hours before dosed with insulin des(B30) analogues with GS2.1 or GS5.0 N-glycan compositions by s.c injection. The effect on blood glucose was determined as a function of time in the absence and presence of α-methylmannose. FIG. 40A: vehicle; FIG. 40B: GS5.0; FIG. 40C: GS2.1; and FIG. 40D: summarizes the results.
To study the glucose responsiveness of the GS2.1 and GS5.0 insulin analogues, C57BL/6 mice at 12 weeks of age were fasted two hours before dosed with GS2.1 or GS5.0 by s.c injection. At the same time, animals received i.p. administration of α-methylmannose solution (21.5% w/v in saline, 10 ml/kg) or vehicle. […] Blood glucose was measured using a glucometer (OneTouch Ultra LifeScan; Milpitas, Calif.) at time 0 and then 30, 60, 90, and 120 minutes post injection. Glucose Area-Over-the-Curve (AOC) was calculated using values normalized to glucose of time 0 (as 100%).

The conditions of data set [3]: mouse, in vivo.
A further data set addresses IGF-1R (Homo sapiens, UniProt P08069). As to the kind of experiment: IGF-1 receptor binding (FIG. 5B). The text has this:
(§1) FIG. 5A, FIG. 5B, FIG. 5C, and FIG. 5D show[s] in vitro activities of the two N-glycosylated insulin analogues at the insulin and insulin-like growth factor (IGF-1) receptors.
Published studies have shown insulin to have a reduced interaction with IGF-1R when it contains a net negative charge at the end of the B-chain (Slieker et al., op. cit.). Therefore, we hypothesized that an N-glycosylated insulin analogue having sialic acid terminated-N-glycans would have reduced IGF-1R binding.

Data set [4] has as its target T1, insulin receptor (IR) (Homo sapiens, UniProt P06213). The data set can be described thus: In vitro insulin receptor phosphorylation / IR signaling assay (FIG. 5C). It counts as cell-based.
From the text: as §1
(§2) N-glycans provide a means for modulating IR binding. […] The sialylated N-glycans extended the PK of the insulin relative to insulin analogues having non-sialylated N-glycans. However, the extended PK is balanced by the reduced binding at the IR. […] In light of the examples shown herein, modulating insulin-IR interactions can be accomplished by providing glycosylated insulin analogues in which one or more N-glycans have been added to the molecule by N-linked glycosylation in vivo or by attaching one or more of the N-glycans to the insulin molecule in vitro or a combination of both.

Data set [5] is described as follows: Circulating insulin analogue levels during insulin tolerance test (ITT). The following applies: FIG. 3A/3B.
The target of data set [6] is T1, insulin receptor (IR). As to the kind of experiment: In vitro insulin receptor binding (FIG. 5A).
From the text: as §1, §2

“Also recorded” adds a separate entry of the source. Like-named read-outs stand apart in the source and are kept apart here.

In the case of “GS5.0: insulin heterodimer, native A-chain, des(B30) B:P28N B-chain, Asn28 attached to a G2 N-glycan (SEQ ID NO:295)”, the “In vivo glucose-lowering activity” value in data set [1] (FIG. 4) is “retained activity at the insulin receptor”. In data set [2] (AOC normalized to glucose at time 0), the “Percent glucose AOC in the presence and absence of α-methylmannose” value is on record as “no change was detected”. In addition, the “Blood glucose lowering, dosed alone” value in data set [2] (s.c., i.p. vehicle, 0-120 min, GS5.0 at 18 nmol/kg) was “lowered glucose during 120 min study period”. The “Blood glucose lowering in the presence of α-methylmannose” value in data set [2] (s.c., i.p. α-methylmannose 21.5% w/v, 10 ml/kg) is given as “no detectable additional effect on glucose lowering”. For the same substance, in data set [3], the “AUC of circulating insulin analogue levels” value is on record as “statistically significant improvements in AUC relative to mature NOVOLIN”.

For the substance “GS6.0: insulin heterodimer, native A-chain, des(B30) B:P28N B-chain, Asn28 attached to an A2 N-glycan (SEQ ID NO:294)”, the “In vivo glucose-lowering activity” value in data set [1] (FIG. 4, listed as sialic acid-terminated glycoform) was “retained activity at the insulin receptor; also recorded: longest glucose-lowering activity of all des(B30) samples”. Also, the IGF-1R binding affinity entry with IGF-1R was “interacts with IGF-1R with even less affinity than NOVOLIN”. In the data set with insulin receptor (IR) [4], the “In vitro IR signaling activity” value is listed as “reduced activity”. Moreover, the “AUC of circulating insulin analogue levels” value is on record as “statistically significant improvements in AUC relative to mature NOVOLIN” in data set [5] and “even greater AUC measurements relative to the galactose-terminated glycoform” in data set [5] (listed as sialic acid-terminated glycoform). In addition, the “In vitro IR binding” value with insulin receptor (IR) [6] was “reduced binding activity to IR”.
